How the values were obtained:
[1] = biological target: T1, HLA-DQ2.5 on HLA-DQ2.5-positive PBMC B cells (human, UniProt P01909 24-254; P01920 33-261); assay: FACS, PBMC B cells; IC17=0%, DQN0139bb//IC17=100%
T1 construct: whole, on cells; also called HLA-DQ2.5+ PBMC B cell
T1 MHC II alpha: not shown
T1 MHC II beta: not shown

[2] = biological target: HLA-DQ2.5/33mer gliadin peptide on IHW9088 cells (human); assay: cell-based or functional assay
HLA-DQ8 on Ba/F3 cells = biological target: T2, HLA-DQ8 on Ba/F3 cells (human, UniProt P01909 24-216; P01920 33-230, limits assumed); assay: FACS, Ba/F3 cells; IC17=0%, DQN0139bb//IC17=100%;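 also: flow cytometry binding of anti-HLA-DQ antibodies at 5 µg/mL, incubated 30 min at room temperature with Ba/F3 lines presenting HLA-DQ/peptide complexes; antibody tested at 5 microgram/mL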
T2 construct: whole, on cells; also called Ba/F3-HLA-DQ8
Description: (§1) The binding of anti-HLA-DQ antibodies to Ba/F3-HLA-DQ2.5, Ba/F3-HLA-DQ2.2, Ba/F3-HLA-DQ7.5, Ba/F3-HLA-DQ8, Ba/F3-HLA-DQ5.1, Ba/F3-HLA-DQ6.3, Ba/F3-HLA-DQ7.3, Ba/F3-HLA-DR, Ba/F3-HLA-DP, Ba/F3-HLA-DQ2.5/CLIP, Ba/F3-HLA-DQ2.5/HBV, Ba/F3-HLA-DQ2.5/Salmonella, Ba/F3-HLA-DQ2.5/TPO, Ba/F3-HLA-DQ2.5/M. bovis, Ba/F3-HLA-DQ2.5/alpha 1 gliadin, Ba/F3-HLA-DQ2.5/alpha 2 gliadin, Ba/F3-HLA-DQ2.5/gamma 1 gliadin, Ba/F3-HLA-DQ2.5/gamma 2 gliadin, Ba/F3-HLA-DQ2.5/omega 1 gliadin, Ba/F3-HLA-DQ2.5/omega 2 gliadin, Ba/F3-HLA-DQ2.5/BC hordein, Ba/F3-HLA-DQ2.5/alpha 3 gliadin, Ba/F3-HLA-DQ2.5/alpha 1b gliadin, Ba/F3-HLA-DQ2.5/gamma 4b gliadin, Ba/F3-HLA-DQ2.5/avenin 1, Ba/F3-HLA-DQ2.5/avenin 2, Ba/F3-HLA-DQ2.5/avenin 3, Ba/F3-HLA-DQ2.5/hordein 1, Ba/F3-HLA-DQ2.5/hordein 2, Ba/F3-HLA-DQ2.5/secalin 1, Ba/F3-HLA-DQ2.5/secalin 2, Ba/F3-HLA-DQ2.5/14mer 1, Ba/F3-HLA-DQ2.5/33mer gliadin, Ba/F3-HLA-DQ2.5/26mer gliadin, was tested. 5 microgram/mL of each of the anti-HLA-DQ antibodies was incubated with each cell line for 30 minutes at room temperature and washed with FACS buffer (2% FBS, 2 mM EDTA in PBS).
T2 MHC II alpha: not shown
T2 MHC II beta: not shown

[3] = biological target: T3, HLA-DQ2.5/hordein 1 peptide complex on Ba/F3 cells (human); assay: FACS, Ba/F3 cells; IC17=0%, DQN0139bb//IC17=100%;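 also: flow cytometry binding of anti-HLA-DQ antibodies at 5 µg/mL, incubated 30 min at room temperature with Ba/F3 lines presenting HLA-DQ/peptide complexes; antibody tested at 5 microgram/mL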
T3 construct: whole, on cells; also called Ba/F3-HLA-DQ2.5/hordein 1
Description: as §1

[4] = biological target: T4, HLA-DQ2.5/BC hordein peptide complex on Ba/F3 cells (human); assay: FACS, Ba/F3 cells; IC17=0%, DQN0139bb//IC17=100%;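 also: flow cytometry binding of anti-HLA-DQ antibodies at 5 µg/mL, incubated 30 min at room temperature with Ba/F3 lines presenting HLA-DQ/peptide complexes; antibody tested at 5 microgram/mL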
T4 construct: whole, on cells; also called Ba/F3-HLA-DQ2.5/BC hordein
Description: as §1

[5] = biological target: T5, HLA-DQ2.5/Thyroperoxidase peptide complex on Ba/F3 cells (human); assay: FACS, Ba/F3 cells; IC17=0%, DQN0139bb//IC17=100%;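 also: flow cytometry binding of anti-HLA-DQ antibodies at 5 µg/mL, incubated 30 min at room temperature with Ba/F3 lines presenting HLA-DQ/peptide complexes; antibody tested at 5 microgram/mL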
T5 construct: whole, on cells; also called Ba/F3-HLA-DQ2.5/TPO; HLA-DQ2.5/TPO
Description: as §1

[6] = biological target: T6, HLA-DQ2.5/gamma 1 gliadin peptide complex on Ba/F3 cells (human); assay: FACS, Ba/F3 cells; IC17=0%, DQN0139bb//IC17=100%
T6 construct: whole, on cells; also called Ba/F3-HLA-DQ2.5/gamma 1 gliadin; HLA-DQ2.5/g1 gliadin
Description: as §1

[7] = biological target: T7, HLA-DQ2.5/alpha 3 gliadin peptide complex on Ba/F3 cells (human); assay: FACS, Ba/F3 cells; IC17=0%, DQN0139bb//IC17=100%
T7 construct: whole, on cells; also called Ba/F3-HLA-DQ2.5/alpha 3 gliadin; HLA-DQ2.5/a3 gliadin
Description: as §1

HLA-DQ7.5 on Ba/F3 cells = biological target: T8, HLA-DQ7.5 on Ba/F3 cells (human, UniProt P01909 24-216; P01920 33-230, limits assumed); assay: FACS, Ba/F3 cells; IC17=0%, DQN0139bb//IC17=100%
T8 construct: whole, on cells; also called Ba/F3-HLA-DQ7.5
T8 sequence (P01920 33-230 limits assumed, chain 2 of 4, other chains not shown): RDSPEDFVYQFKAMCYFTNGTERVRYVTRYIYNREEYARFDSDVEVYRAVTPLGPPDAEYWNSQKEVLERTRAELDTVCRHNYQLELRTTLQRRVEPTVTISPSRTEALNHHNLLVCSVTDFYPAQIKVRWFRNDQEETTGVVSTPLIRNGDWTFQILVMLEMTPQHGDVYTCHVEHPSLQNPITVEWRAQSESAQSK
Description: as §1

[8] = biological target: T9, HLA-DQ2.5/gamma 2 gliadin peptide complex on Ba/F3 cells (human); assay: FACS, Ba/F3 cells; IC17=0%, DQN0139bb//IC17=100%
T9 construct: whole, on cells; also called Ba/F3-HLA-DQ2.5/gamma 2 gliadin; HLA-DQ2.5/g2 gliadin
Description: as §1

[9] = biological target: T10, HLA-DQ2.5/avenin 3 peptide complex on Ba/F3 cells (human); assay: FACS, Ba/F3 cells; IC17=0%, DQN0139bb//IC17=100%
T10 construct: whole, on cells; also called Ba/F3-HLA-DQ2.5/avenin 3
Description: as §1

[10] = biological target: T11, HLA-DQ2.5/avenin 2 peptide complex on Ba/F3 cells (human); assay: FACS, Ba/F3 cells; IC17=0%, DQN0139bb//IC17=100%
T11 construct: whole, on cells; also called Ba/F3-HLA-DQ2.5/avenin 2
Description: as §1

[11] = biological target: T12, HLA-DQ2.5/hordein 2 peptide complex on Ba/F3 cells (human); assay: FACS, Ba/F3 cells; IC17=0%, DQN0139bb//IC17=100%
T12 construct: whole, on cells; also called Ba/F3-HLA-DQ2.5/hordein 2
Description: as §1

[12] = biological target: T13, HLA-DQ2.5/secalin 2 peptide complex on Ba/F3 cells (human); assay: FACS, Ba/F3 cells; IC17=0%, DQN0139bb//IC17=100%
T13 construct: whole, on cells; also called Ba/F3-HLA-DQ2.5/secalin 2
Description: as §1

[13] = biological target: T14, HLA-DQ2.5/alpha 1 gliadin peptide complex on Ba/F3 cells (human); assay: FACS, Ba/F3 cells; IC17=0%, DQN0139bb//IC17=100%
T14 construct: whole, on cells; also called Ba/F3-HLA-DQ2.5/alpha 1 gliadin; HLA-DQ2.5/a1 gliadin
Description: as §1

[14] = biological target: T15, HLA-DQ2.5/26mer gliadin peptide complex on Ba/F3 cells (human); assay: FACS, Ba/F3 cells; IC17=0%, DQN0139bb//IC17=100%
T15 construct: whole, on cells; also called Ba/F3-HLA-DQ2.5/26mer gliadin
Description: as §1

[15] = biological target: T16, HLA-DQ2.5/omega 1 gliadin peptide complex on Ba/F3 cells (human); assay: FACS, Ba/F3 cells; IC17=0%, DQN0139bb//IC17=100%
T16 construct: whole, on cells; also called Ba/F3-HLA-DQ2.5/omega 1 gliadin; HLA-DQ2.5/w1 gliadin
Description: as §1

[16] = biological target: T17, HLA-DQ2.5/avenin 1 peptide complex on Ba/F3 cells (human); assay: FACS, Ba/F3 cells; IC17=0%, DQN0139bb//IC17=100%
T17 construct: whole, on cells; also called Ba/F3-HLA-DQ2.5/avenin 1
Description: as §1

[17] = biological target: T18, HLA-DQ2.5/secalin 1 peptide complex on Ba/F3 cells (human); assay: FACS, Ba/F3 cells; IC17=0%, DQN0139bb//IC17=100%
T18 construct: whole, on cells; also called Ba/F3-HLA-DQ2.5/secalin 1
Description: as §1

[18] = biological target: T19, HLA-DQ2.5/CLIP peptide complex on Ba/F3 cells (human); assay: FACS, Ba/F3 cells; IC17=0%, DQN0139bb//IC17=100%
T19 construct: whole, on cells; also called Ba/F3-HLA-DQ2.5/CLIP
T19 sequence (P04233 96-124, chain 2 of 2, other chains not shown): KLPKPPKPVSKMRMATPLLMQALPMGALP
Description: as §1

[19] = biological target: T20, HLA-DQ2.5/33mer gliadin peptide complex on Ba/F3 cells (human); assay: FACS, Ba/F3 cells; IC17=0%, DQN0139bb//IC17=100%
T20 construct: whole, on cells; also called Ba/F3-HLA-DQ2.5/33mer gliadin
Description: as §1

[20] = biological target: T21, HLA-DQ2.5/alpha 2 gliadin peptide complex on Ba/F3 cells (human); assay: FACS, Ba/F3 cells; IC17=0%, DQN0139bb//IC17=100%
T21 construct: whole, on cells; also called Ba/F3-HLA-DQ2.5/alpha 2 gliadin; HLA-DQ2.5/a2 gliadin
Description: as §1

[21] = biological target: T22, HLA-DQ2.5/omega 2 gliadin peptide complex on Ba/F3 cells (human); assay: FACS, Ba/F3 cells; IC17=0%, DQN0139bb//IC17=100%
T22 construct: whole, on cells; also called Ba/F3-HLA-DQ2.5/omega 2 gliadin; HLA-DQ2.5/w2 gliadin
Description: as §1

[22] = biological target: T23, HLA-DQ2.5/alpha 1b gliadin peptide complex on Ba/F3 cells (human); assay: FACS, Ba/F3 cells; IC17=0%, DQN0139bb//IC17=100%
T23 construct: whole, on cells; also called Ba/F3-HLA-DQ2.5/alpha 1b gliadin; HLA-DQ2.5/a1b gliadin
Description: as §1

[23] = biological target: T24, HLA-DQ2.5/14mer 1 peptide complex on Ba/F3 cells (human); assay: FACS, Ba/F3 cells; IC17=0%, DQN0139bb//IC17=100%
T24 construct: whole, on cells; also called Ba/F3-HLA-DQ2.5/14mer 1
Description: as §1

B1: DQN0344xx//IC17 (bispecific antibody, human IgG1, kappa)
heavy 1: QSLEESGGGLVKPGGTLTLTCTASGFSFSSSYWMCWVRQAPGKGLEWVACVYGGSDTTYYASWTKGRFTISKGSSTTVALQVTSLTAADTATYFCARDPLNYYYYGELNLWGPGTLVTVSSASTKGPSVFPLAPSSKSTSGGTAALGCLVKDYFPEPVTVSWNSGALTSGVHTFPAVLQSSGLYSLSSVVTVPSSSLGTQTYICNVNHKPSNTKVDKRVEPKSCDKTHTCPPCPAPELRRGPSVFLFPPKPKDTLMISRTPEVTCVVVDVSHEDPEVKFNWYVDGVEVHNAKTKPREEQYNSTYRVVSVLTVLHQDWLNGKEYKCKVSNKALPAPIEKTISKAKGQPREPQVYTLPPSREEMTKNQVSLTCLVKGFYPSDIAVEWESNGQPENNYKTTPPYLDSDGSFFLYSKLTVDKSRWQQGNVFSCSVMHEALHNHYTQESLSLSP
light 1: AVVLTQTASPVSAAVGGTVTIRCQATENIYSGLAWYQQKPGQPPKVLIYYVSTLASGVPSRFKGSGSGTEYTLTISGVQCDDAATYYCQTYHDISNVTFGGGTKVEIKRTVAAPSVFIFPPSDEQLKSGTASVVCLLNNFYPREAKVQWKVDNALQSGNSQESVTEQDSKDCTYSLSSTLTLSKADYEKHKVYACEVTHQGLSSPVTKSFNRGEC
heavy 2: QVQLQQSGPQLVRPGASVKISCKASGYSFTSYWMHWVNQRPGQGLEWIGMIDPSYSETRLNQKFKDKATLTVDKSSSTAYMQLSSPTSEDSAVYYCALYGNYFDYWGQGTTLTVSSASTKGPSVFPLAPSSKSTSGGTAALGCLVKDYFPEPVTVSWNSGALTSGVHTFPAVLQSSGLYSLSSVVTVPSSSLGTQTYICNVNHKPSNTKVDKRVEPKSCDKTHTCPPCPAPELRRGPSVFLFPPKPKDTLMISRTPEVTCVVVDVSHEDPEVKFNWYVDGVEVHNAKTKPREEQYNSTYRVVSVLTVLHQDWLNGKEYKCKVSNKALPAPIEKTISKAKGQPREPQVYTLPPSRKEMTKNQVSLTCLVKGFYPSDIAVEWESNGQPENNYKTTPPYLDSDGSFFLYSKLTVDKSRWQQGNVFSCSVMHEALHNHYTQKSLSLSP
light 2: DIQMTQSSSSFSVSLGDRVTITCKASEDIYNRLAWYQQKPGNAPRLLISGATSLETGVPSRFSGSGSGKDYTLSITSLQTEDVATYYCQQYWSTPYTFGGGTKLEVKRTVAAPSVFIFPPSDEQLKSGTASVVCLLNNFYPREAKVQWKVDNALQSGNSQESVTEQDSKDSTYSLSSTLTLSKADYEKHKVYACEVTHQGLSSPVTKSFNRGEC
Which “% MFI” value [1] does the source give for B1 here?
Its value is 0%.

And the “IC50 (read off the curve)” value [2]?
Its value is about 0.2 microgram/mL.

What about the “% MFI” value (HLA-DQ8 on Ba/F3 cells) of the same binder?
The value was 0%.

And the “% MFI” value [3]?
The value was 11.9%.

What about the “% MFI” value [4] of the same binder?
The value was 0%.

What about the “% MFI” value [5] of the same binder?
Its value is 0%.

And the “% MFI” value [6]?
The value was 0.2%.

What about the “% MFI” value [7] of the same binder?
Its value is 14.6%.

What about the “% MFI” value (HLA-DQ7.5 on Ba/F3 cells) of the same binder?
The value was 0%.

And the “% MFI” value [8]?
Its value is 0.2%.

And the “% MFI” value [9]?
Its value is 17.8%.

What about the “% MFI” value [10] of the same binder?
The value was 16.8%.

And the “% MFI” value [11]?
The value was 0%.

What about the “% MFI” value [12] of the same binder?
Its value is 26.5%.

And the “% MFI” value [13]?
The value was 60.1%.

And the “% MFI” value [14]?
The value was 0.2%.

And the “% MFI” value [15]?
The value was 37.5%.

What about the “% MFI” value [16] of the same binder?
The value was 20.7%.

What about the “% MFI” value [17] of the same binder?
The value was 31.6%.

And the “% MFI” value [18]?
Its value is 0%.

What about the “% MFI” value [19] of the same binder?
The value was 99.1%.

What about the “% MFI” value [20] of the same binder?
The value was 90.4%.

And the “% MFI” value [21]?
Its value is 0.2%.

And the “% MFI” value [22]?
Its value is 72.2%.

And the “% MFI” value [23]?
The value was 0%.

Reference: patent US20220153847A1 (Chugai, published 2022)
